Test system: PMN-MDSCs in the TIME
Experiment: Flow cytometry of tumor-infiltrating cells from SL4 tumors (PMN-MDSCs in CD45+ cells)
Type: in vivo
Conditions: 55F3 200 μg/mouse i.p., Day 13 after transplantation, ratio of PMN-MDSCs to CD45+ cells, vs control IgG
Procedure: In FIG. 13(a), SL4 cells (1×10^5 cells) were subcutaneously transplanted into C57BL/6 mice. The monoclonal antibody (55F3) (n=5) reacting against TCTP or control IgG (n=6) was intraperitoneally administered to the mice, every other day from one day after the transplantation (200 μg/mouse). The tumor volume was measured over time. In FIG. 13(b), on Day 13 after the transplantation, single cell suspensions were prepared from tumors, and were then subjected to a flow cytometry analysis (n=5). […] In FIG. 13(c), SL4 cells (1×10^5 cells) were subcutaneously transplanted into C57BL/6 mice (n=6). After the transplantation, DHA (50 mg/kg) was intraperitoneally […] into the mice every day. The tumor volume was measured over time. […] The tumor volume was measured over time. […] In FIG. 13(f), the amount of TCTP in sera derived from healthy subjects (people who are not affected with cancer) (n=5) and colorectal cancer patients (n=14) was quantified by immunoblotting. […] In FIG. 13 (g), (right view) the relative staining intensity by the anti-TCTP antibody was semi-quantified, and the staining intensity of the colorectal cancer tissues was compared with the staining intensity of the normal large intestinal tissues (n=45). […]
Tumor-infiltrating cells were recovered after subcutaneous transplantation of a tumor into mice, and were then analyzed by flow cytometry. […]

B1: 55F3: Mouse monoclonal antibody against human TCTP peptide SEQ ID NO: 25; CDRs SEQ ID NO: 1-6, VH SEQ ID NO: 19, VL SEQ ID NO: 22 (antibody, listed as Mus musculus)
VH: MRVLILLWLFTAFPGILSDVQLQESGPGLVKPSQSLSLTCTATGYSIASDYAWNWIRQFPGNKLEWMGYINYSGSTGYNPSLKSRISITRDTSKNQFFLQLNSVTTEDTATYYCARFEAGYWGQGTTLTVSSAKTTPPSVYPLAPGSAAQTNSMVTLGCLVKGYFPEPVT
VL: MDMRTPAQFLGILLLWFPGIKCDIKMTQSPSSMSASLGERVTITCKASQDINRYLSWFQQKPGKSPKTLIYRANRLVDGVPSRFSGSGSGQDYSLTISSLEYGDMGIYYCLQYNEFPLTFGAGTKLELKRADAAPTVSIFPPSSEQLTSGGASVVCFLN
amount of PMN-MDSCs in the TIME: decreased
